± gives the half width of the 95% confidence interval.
Columns and labels:
[1] = folding stability dG unfold from chymotrypsin proteolysis; higher = more stable
Protocol: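 Folding stability of de novo designed mini-proteins (<80 aa, no Cys; designed by TrROS, TrMRF, ProteinMPNN and the joint model) was measured by cDNA display proteolysis with trypsin and chymotrypsin. Each protease was used at 11 concentrations in a threefold dilution series plus a no-protease condition. K50 was inferred by Bayesian fitting of sequencing counts, and dG unfold was derived against a sequence-predicted unfolded-state K50 (Tsuboyama et al. method). Sequences shown include variable-length N-terminal GS-type padding (SAGGSAGG...) inside a display construct carrying a PA tag. Rows were kept only if the AF2 dimer inter-PAE was >15, to exclude likely homo-oligomers.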

[2] = folding stability dG unfold (combined trypsin and chymotrypsin); higher = more stable
Outline: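 Unfolding free energy was derived, per protease or combined, against a sequence-predicted unfolded-state K50 and a shared folded-state K50, starting from K50 inferred by Bayesian fitting of sequencing counts. Digestion with trypsin and chymotrypsin was carried out on designed mini-proteins under 80 residues without cysteine in a PA-tagged cDNA display construct. Only designs with AlphaFold2 dimer inter-PAE above 15 were kept.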

Sequence	folding stability dG unfold [1]	folding stability dG unfold [2]
SAGGSAGGSAMTVYVPIEEVGPDENGEYDDELIRERVREEYPDEPVEEVLVEGPEEAERVARSAGGSAGGSA [r18_72_JUSTAS]	-0.134 ± 0.061 kcal/mol	-0.384 ± 0.23 kcal/mol
SAGGIKVKITDEDGEEKTFKVKDINVNKSPNNGMPSLKIKLANGRPWVIMIPPGRPLEPGDEITVRPLSAGG [r13_390_TrROS]	-0.371 ± 0.93 kcal/mol	-0.452 ± 0.63 kcal/mol
SAGGSAGGSAGEVLIVAPAALLKEAIGPGVEVLAVDDDVVVVRVPVPPVPLTDANGNPLPSAGGSAGGSAGG [r11_828_TrMRF]	0.598 ± 0.047 kcal/mol	-0.15 ± 0.3 kcal/mol
SAGGSAGGSAGNADQIKEIARKYAPKNGMKPKDVDIEVEERENPNGKKELHIDVEGEYKNSAGGSAGGSAGG [r11_414_TrROS]	0.00121 ± 0.46 kcal/mol	< -1 kcal/mol
SAGGSAGGSAGGMYIPGDLVEWVSPVGDKWRVGLIGKPQTFDWKDIPAPSNENIVFVPGSAGGSAGGSAGGS [r10_665_TrMRF]	-0.392 ± 0.29 kcal/mol	< -1 kcal/mol
SAGGSAGGSAGGMPPVEIVEIVNSPGKNPVIVLDPATGEPRLIEVPPDVTLTPEMARRESAGGSAGGSAGGS [r10_844_JUSTAS]	0.838 ± 0.066 kcal/mol	0.0501 ± 0.2 kcal/mol
SAGGLEEVAQELEAQGGEVEVRKVGGGSTEITVRLREPEAPRLLEVRLSLPPAGARLQVLSREALPPSAGGS [r16_613_JUSTAS]	-0.704 ± 0.51 kcal/mol	< -1 kcal/mol
SAGGSAGGLKPGDTVTLPIEIWIMHMETKKDPNGDPEPRMEPYPYRIPITIPADDLNDGKITLTSAGGSAGG [r6_138_TrROS]	0.0398 ± 0.46 kcal/mol	< -1 kcal/mol
SAGGSAGGSAGGGMKTKTTISTHPGPGGKTRVLVEVDPKKGLLTWRDPSDPSATTVVPLGSAGGSAGGSAGG [r7_992_JUSTAS]	0.511 ± 0.23 kcal/mol	-0.446 ± 0.41 kcal/mol
SAGGSAGGSMLRVEVTLENGEKIEVEIEVPPGEELTLDEILAELKEKYPDLKVTEIKIEFLEPSAGGSAGGS [r12_262_TrROS_Hall]	2.63 ± 0.22 kcal/mol	3.27 ± 0.28 kcal/mol
SAGLFDYLHKHNGLVRAALRRNGPPVVIPRLFRIEPDGDTYKLSVPDPDGVPQDWEVLDVEVFKPEDAISAG [r14_427_TrMRF]	0.275 ± 0.19 kcal/mol	-0.0844 ± 0.18 kcal/mol
SSVTLLVPVEVTLPTPEGKGPSVTRFVPVPVPEEELRERLIEELREELKKKGEPDVTEEELKDPEVLEELSA [r9_263_JUSTAS]	0.51 ± 0.046 kcal/mol	-0.0887 ± 0.18 kcal/mol
SAGGSAGGSMTIVNPGTPETLAATVKETIKAGKKVKVIYVSPDNPEPVAEAEVEGTAEELEKESAGGSAGGS [r12_241_TrMRF]	0.193 ± 0.11 kcal/mol	-0.49 ± 0.29 kcal/mol
SAGAAAIAEKLGFSPELVEILSVEDVEYTIVVRRTGEPVKMKRPTVKVLVTDPSVPKETTAEVPVAELASAG [r5_517_JUSTAS]	-0.807 ± 0.57 kcal/mol	-0.714 ± 0.35 kcal/mol
SAGGSAGGSAGGGATVTETRTEFVPPTGIVRVESVVTYPDGSTRRTSSVVVVERPGAQPSAGGSAGGSAGGS [r10_290_JUSTAS]	0.872 ± 0.03 kcal/mol	0.386 ± 0.13 kcal/mol
SAGGTATVEAALAALPADLPRGSLALHPETGLVEPLEPSPEDAVAYPVNPATGERYPLRVEADAVRLLSAGG [r13_803_JUSTAS]	0.461 ± 0.079 kcal/mol	-0.517 ± 0.15 kcal/mol
MDIPIKELLKKAAENGVRIVFPNGAETLSIFPDGEAVVRFPVELPDRPGIPVEEVERVIKIKEDGSLEVEGS [r1_284_TrMRF]	-1.08 ± 0.65 kcal/mol	< -1 kcal/mol
SAGGSAGGSAMKLTKEYVFTKTITLKNGKTKTESEVLTEEVPPIPLEELIKRLGLPPEELISAGGSAGGSAG [r3_338_JUSTAS]	-0.126 ± 0.44 kcal/mol	-0.186 ± 0.32 kcal/mol
SAGGSAGGSAGASSLTLEELLKLHPGTVVRKERVELVEGKLVIDLVVEKVDPDTDKLTPESAGGSAGGSAGG [r11_20_JUSTAS]	0.893 ± 0.043 kcal/mol	0.409 ± 0.14 kcal/mol

Sequence	folding stability dG unfold [1]	folding stability dG unfold [2]
SPPVLYEITITFTYSDGTTVTKTINATVPRSQIDALIQKIIEEPGNKPYTKVTFNIYDKSTGTWTTITIDSA [r9_97_JUSTAS]	5.76 ± 0.18 kcal/mol	5.66 ± 0.23 kcal/mol
SAGGSAGGSAGGSDDGSGVRLETFTVTGKGATVTLPDGSTLTVPADQTVTVTRLEVLPKSAGGSAGGSAGGS [r4_26_TrMRF]	-0.509 ± 0.23 kcal/mol	< -1 kcal/mol
PGEMVPIEWPVKVRVRDPNGPGNKKREVEIPIEYPYPPGQKDPEQMLEMAHELAEELAEKEGPKDVEIEPIS [r1_300_TrROS]	0.271 ± 0.13 kcal/mol	-0.474 ± 0.31 kcal/mol
SAGMEVVEKIAKELGYENVKVESITPQVSPSGTTTLTITVKISKPGSTKTFTITASPEEIEEEIKKALSSAG [r5_549_JUSTAS]	4.72 ± 0.14 kcal/mol	4.77 ± 0.23 kcal/mol
SAGGSAGGSQKPTIEKEGGRYYIRNPDNGKSFPINIEREDNEWKFEFGDGEITIPGEFEIQRRSAGGSAGGS [r12_683_TrROS]	-0.308 ± 0.14 kcal/mol	< -1 kcal/mol
SAGGSAGGSAGYPPVPPAVVQAVVDELPRLGYTPKAVVVGEGPDLPFVLVVADDKVLLVRGSAGGSAGGSAG [r3_395_TrMRF]	0.524 ± 0.096 kcal/mol	-0.379 ± 0.14 kcal/mol
SAGGSSVKVVKTEVTEDPATGLTTVTETFENGAKATFTIDPATGTVPGETEYPDKKVKYTGYDPLPPSAGGS [r8_363_JUSTAS]	0.588 ± 0.15 kcal/mol	-0.111 ± 0.31 kcal/mol
SAGGSIPAEEIADKLRKEPGIPEDDVEVNVERRPGQVTIDVKMDDPDHPQHRRMKKRAQDALQKLLSAGGSA [r2_3_TrROS]	0.186 ± 0.31 kcal/mol	-0.133 ± 0.3 kcal/mol
SAGGSAGSVPSIVIESYDPEKGIVTVSYPATGATYTVEVPPGSTSLTVTVTDADGTPRTFTFPLPGSAGGSA [r2_132_JUSTAS]	5.31 ± 0.1 kcal/mol	5.36 ± 0.12 kcal/mol
SAGGSAGGSAGGSGPDETILVTRKVTTTEPVLLEHDGTPRVRERTVTRTSSTTERVDLSSAGGSAGGSAGGS [r4_271_JUSTAS]	-0.146 ± 0.21 kcal/mol	-0.835 ± 0.32 kcal/mol
SAGGSAGGSAMPIPKVLVLKDEGTLEEAREAALKYVKEDEKVIVKIGDKEIVIPAEELKKKSAGGSAGGSAG [r3_50_TrMRF]	-0.237 ± 0.5 kcal/mol	< -1 kcal/mol
SAGGSAGGSAMIETSVSLDPKNGLRKVTQNVTPEEYLKLTGGPPIPKENKTTVTLTKTLPVPSAGGSAGGSA [r18_327_JUSTAS]	-0.265 ± 0.087 kcal/mol	-0.726 ± 0.16 kcal/mol
SAGGSAGGSAGGSGSTTPIPATGATLTTETLPDGSPLYTLTDPATGATTTYPPGAPVGLSAGGSAGGSAGGS [r4_158_JUSTAS]	-0.26 ± 0.07 kcal/mol	< -1 kcal/mol
SAMIEVYRPPDRALVKLPSGKVEILDDPEAFEARVRAESDLPIRVTPLSPESPEFKALLEEIEKKLKGKSAG [r14_235_JUSTAS]	0.192 ± 0.18 kcal/mol	0.0988 ± 0.31 kcal/mol
SAGGSAGGSAAPEALPPRLVVPRPVLIVDKAPLEEVEVEELRKAAEEFARAVPDAVVLVDEESAGGSAGGSA [r18_499_TrMRF]	0.788 ± 0.12 kcal/mol	0.0223 ± 0.23 kcal/mol
SKPMPADELMEQHPNMIMIRTPNDKHIFINPEENEIFRFNPDEGRVYWIPGTLEEIEELVPDNGFEIWPFSA [r9_721_TrROS]	0.536 ± 0.21 kcal/mol	0.286 ± 0.22 kcal/mol
SAGGSAGGMSLEEAVEEAAAAVSPDETAEVVLTVEVSEPLTFPEPPDRLVTRPRTVRVRVRAPASAGGSAGG [r6_543_JUSTAS]	0.488 ± 0.11 kcal/mol	0.319 ± 0.19 kcal/mol
SAGGSAGGNPDTPVLTRKTSETFNIAPGEVVKFPDSSVVTPTEDGTYTIDKTITYNGPPDKPLTSAGGSAGG [r6_635_JUSTAS]	0.345 ± 0.13 kcal/mol	-0.279 ± 0.23 kcal/mol
